Results: patent US12630850B2, “Enzymatic break down of chlorogenic acid in sunflower-containing products” (Chapman University, priority 2022, dated 2026)

Assays:
[1] = Song & Baik, 2017; cited from earlier work
[2] = CGA esterase activity in the sunflower meal supernatant and pellet (HPLC); type: biochemical; conditions: for Pellet mg CA/g meal / Pellet mg CGA/g meal / Supernatant mg CA/g meal / Supernatant mg CGA/g meal: enzyme present
Excerpt: Sunflower meal and sunflower protein treatment with chlorogenic acid esterase. Sunflower seeds were ground using a KitchenAid coffee grinder in two 30 s increments and sieved through a 500 μm filter to make SFM. Two defatting methods were used: cold press and hexane extraction. To make cold pressed SFM, ground seeds were pressed in a Carver Hydraulic Unit Model 3912 3852-0 five times to a pressure of 9,000-10,000 psi. For hexane extracted SFM, fat was removed from ground seeds using a Soxhlet apparatus in 250 mL hexane for 18 h and subsequently dried using a Fischer Scientific Isotemp Oven Model 516G at 45° C. for 3 h. Cold pressed, hexane extracted, and undefatted SFM were then sieved through a 500 μm filter.
Chlorogenic acid esterase activity in the sunflower meal supernatant and pellet. SFM (1 g) that was cold pressed, hexane extracted, or undefatted was buffered in 10 mL of 50 mM HEPES, pH 8.0. CGA esterase was added to a final concentration of 0.756 μM (0.02 mg mL^−1). Untreated samples received a solution of 50 mM HEPES, pH 8.0 instead of CGA esterase. Samples treated with CGA esterase were allowed to sit for 10 min and subsequently centrifuged at 10,000 rpm for 10 min. The supernatant was filtered through a 0.2 μm filter and loaded onto an HPLC while the pellet was lyophilized for 20 h. After lyophilization, 10 mL of 70% ethanol was then added to the dried pellet for 1 h to extract CGA. The pellet was subsequently centrifuged at 10,000 rpm for 10 min. The supernatant was then filtered through a 0.2 μm filter and loaded onto an HPLC.
HPLC quantification of CGA and CA in sunflower meal and protein isolates. All solutions were diluted ten-fold in 0.1% formic acid in HPLC-grade water before analysis. Quantification of CGA and CA concentration was performed using an Agilent 1260 series HPLC instrument (Agilent Technologies) equipped with a quaternary pump, an automated sample injector, a diode array detector, and a 4.6 mm×150 mm Luna C18(2) column with a 5 μm particle size and 100 Å pore size (Phenomenex). The injection volume was 20 μL. To elute analytes, mobile phases composed of 0.1% formic acid in HPLC-grade water (A) and 0.1% formic acid in HPLC-grade acetonitrile (B) were used in a linear gradient. The gradient is as follows: 0 to 13% B in 1 min, up to 27% B at 8 min, up to 100% B at 8.5 min, isocratic at 100% B to 9.5 min, 100% B returned to 0% B at 9.6 min with 3 min post-time. The concentrations of CGA and CA were calculated from peak integration data based on 10-point standard curve that spanned a concentration range of 0 to 0.1 mg mL^−1.

B1: CGA esterase: CGA esterase from L. helveticus (Genbank ID: WP_025283955.1, Uniprot ID: U6F2K7), expressed in Escherichia coli; the dimer is the active form (protein, listed as Lactobacillus helveticus)
chain: MSRITIERDGLTLVGDREEPFGEIYDMAIIMHGFAANRNTDLLRQIADDLRDENVASVRFDFNGHGESDGKFEDMTVCNEIADGKAILDYVRTDPHVRDIFLVGHSQGGVVASMLAGLYPDVVKKVVLLAPAAQLKDDALRSNTQGATYDPNHIPDWPLVGNKLGMKLGGFYLRTAQVLPIYEVSQCFTRPVSVIAGTNDQWDPKYAKKYDEVYENSELHMIPNADHRFSGGYKDMAADLTAQFLKPAF
- Km [1]: 153 µM
- Vmax [1]: 0.5596 mM/min/mg
- Conversion of CGA into caffeic and quinic acid ([2]; SFM, in 10 min): ~100%
- Pellet mg CA/g meal ([2]; cold pressed SFM): 0.81 ± 0.11 mg CA/g meal
- Pellet mg CGA/g meal ([2]; cold pressed SFM): 0.02 ± 0.00 mg CGA/g meal
- Supernatant mg CA/g meal ([2]; cold pressed SFM): 3.33 ± 0.15 mg CA/g meal
- Supernatant mg CGA/g meal ([2]; cold pressed SFM): 0.00 ± 0.00 mg CGA/g meal
- CGA cleavage ([2]; defatted samples): > 99%
- Pellet mg CA/g meal ([2]; hexane extracted SFM): 1.55 ± 0.14 mg CA/g meal
- Pellet mg CGA/g meal ([2]; hexane extracted SFM): 0.03 ± 0.00 mg CGA/g meal
- Supernatant mg CA/g meal ([2]; hexane extracted SFM): 3.77 ± 0.10 mg CA/g meal
- Supernatant mg CGA/g meal ([2]; hexane extracted SFM): 0.00 ± 0.00 mg CGA/g meal
- Pellet mg CA/g meal ([2]; undefatted SFM): 0.34 ± 0.03 mg CA/g meal
- Pellet mg CGA/g meal ([2]; undefatted SFM): 0.11 ± 0.01 mg CGA/g meal
- Supernatant mg CA/g meal ([2]; undefatted SFM): 1.52 ± 0.08 mg CA/g meal
- Supernatant mg CGA/g meal ([2]; undefatted SFM): 0.00 ± 0.00 mg CGA/g meal
- CGA cleavage ([2]; undefatted samples): ca. 96%
